These results are taken from patent CN116769021A.

Like-named read-outs stand apart in the source and are kept apart here.

Assay [1] has as its target AHSV VP7重组蛋白 (recombinant African horse sickness virus VP7 protein) (African horse sickness virus).
For assay [2] the target is unchanged. In words: indirect ELISA on coated recombinant VP7; end-point titer by P/N > 2.1. (In general: ELISA stands for enzyme-linked immunosorbent assay.)
Assay [3] has the same target. The source holds these as a separate data set.
The target is the same in assay [4]. The assay is described as follows: indirect ELISA on coated recombinant VP7 (0.5 ug/mL); 1H4 at 1 ug/mL (1:2000).
Assay [5] has the same target. In words: indirect ELISA on coated recombinant VP7 (0.5 ug/mL); 1H4 at 0.25 ug/mL (1:8000).
Assay [6] shares this target. The assay is described as follows: indirect ELISA on coated recombinant VP7 (0.5 ug/mL); 1H4 at 0.5 ug/mL (1:4000).

In the case of 阴性抗体 (negative antibody), the OD450 in assay [1] was 0.0378 OD450.

B1: 抗AHSV VP7单克隆抗体1H4 (monoclonal antibody 1H4 against African horse sickness virus VP7 protein) (antibody, V domains shown)
VH: EVQLVESGGGLVQPGGSLKLSCAASGFTFSRYGMSWVRQTPDKRLELVAIIKNDGRSSYYPDSVKGRFTIYRDNAKNTLYLQMSTLKSEDTAMYHCAYGSSLYWYFDVWGAGTTVTVSS
VL: DVLMTQTPLSLPVSLGDQASISCRSSQSIVHSNGNTYLEWYLQKPGQSPKLLIYKVSNRFSGVPARFSGSGSGTGFTLKISRVEAEDLGVYYCFQGSHVPPTFGGGTKLEIK
In the case of B1, in assay [2], the 效价 (ELISA titer, P/N > 2.1) (dilution factor (1:x)) turned out to be 1.02e+06. In assay [2], the 效价对应的稀释浓度 (antibody concentration at the end-point titer) was 1.95 ng/mL. Also, the OD450 in assay [3] came to 3.58 OD450; in assay [4], 4.09 OD450; in assay [5] it was 2.93 OD450; in assay [6], 2.87 OD450.
